Measurements reported in the supplement of paper PMC9876800.

Test system: peptide library, one residue held at a place counted from the S/T acceptor
Assay: relative phosphorylation of the sub-library (ratio to the mean residue at this position); human; higher = residue favoured
Method in brief: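 Relative sub-library phosphorylation is a ratio to the mean residue at the same position. Purified recombinant kinases were incubated under kinase-specific conditions with biotinylated degenerate peptide sub-libraries, each fixing one residue at one position around a central Ser/Thr, using 50 μM peptide and 50 μM ATP spiked with γ-32P-ATP for 90 min. Spots captured on streptavidin membranes were phosphorimaged and quantified by densitometry.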

TSSK1B, construct: Full length, sequence (Q9BXA7 whole entry, looked up): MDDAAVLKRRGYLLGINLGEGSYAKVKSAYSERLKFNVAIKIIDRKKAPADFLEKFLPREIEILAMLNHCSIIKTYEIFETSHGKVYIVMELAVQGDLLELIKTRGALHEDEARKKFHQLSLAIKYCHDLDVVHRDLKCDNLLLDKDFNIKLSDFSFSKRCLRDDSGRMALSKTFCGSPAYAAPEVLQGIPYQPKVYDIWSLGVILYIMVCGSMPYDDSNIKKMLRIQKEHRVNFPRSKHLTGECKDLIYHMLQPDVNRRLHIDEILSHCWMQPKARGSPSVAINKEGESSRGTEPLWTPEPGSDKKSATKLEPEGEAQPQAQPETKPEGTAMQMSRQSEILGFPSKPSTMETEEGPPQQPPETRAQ
TTK, construct: Full length, sequence (P33981 whole entry, looked up): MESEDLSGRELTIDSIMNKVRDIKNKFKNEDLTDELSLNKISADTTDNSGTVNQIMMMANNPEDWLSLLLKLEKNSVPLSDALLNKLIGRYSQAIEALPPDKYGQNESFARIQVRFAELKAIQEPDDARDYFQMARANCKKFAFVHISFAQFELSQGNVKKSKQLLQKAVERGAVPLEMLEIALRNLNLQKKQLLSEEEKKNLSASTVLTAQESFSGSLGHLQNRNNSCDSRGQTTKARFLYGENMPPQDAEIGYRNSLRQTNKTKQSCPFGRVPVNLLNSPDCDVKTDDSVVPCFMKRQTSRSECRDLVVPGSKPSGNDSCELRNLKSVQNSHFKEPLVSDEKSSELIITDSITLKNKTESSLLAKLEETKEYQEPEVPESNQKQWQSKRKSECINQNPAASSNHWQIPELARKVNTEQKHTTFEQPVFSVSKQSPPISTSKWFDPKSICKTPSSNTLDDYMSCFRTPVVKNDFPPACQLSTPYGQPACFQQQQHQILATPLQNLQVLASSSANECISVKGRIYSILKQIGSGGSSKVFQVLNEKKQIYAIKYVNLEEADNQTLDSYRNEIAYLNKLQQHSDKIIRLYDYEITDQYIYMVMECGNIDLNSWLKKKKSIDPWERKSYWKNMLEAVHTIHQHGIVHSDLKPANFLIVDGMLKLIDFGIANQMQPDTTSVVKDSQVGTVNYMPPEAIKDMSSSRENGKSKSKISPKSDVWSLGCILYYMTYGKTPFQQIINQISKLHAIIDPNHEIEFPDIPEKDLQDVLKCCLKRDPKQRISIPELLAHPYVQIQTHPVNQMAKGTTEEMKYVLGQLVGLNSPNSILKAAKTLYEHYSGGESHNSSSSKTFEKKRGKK
TTBK1, construct: Full length, sequence (Q5TCY1 whole entry, looked up): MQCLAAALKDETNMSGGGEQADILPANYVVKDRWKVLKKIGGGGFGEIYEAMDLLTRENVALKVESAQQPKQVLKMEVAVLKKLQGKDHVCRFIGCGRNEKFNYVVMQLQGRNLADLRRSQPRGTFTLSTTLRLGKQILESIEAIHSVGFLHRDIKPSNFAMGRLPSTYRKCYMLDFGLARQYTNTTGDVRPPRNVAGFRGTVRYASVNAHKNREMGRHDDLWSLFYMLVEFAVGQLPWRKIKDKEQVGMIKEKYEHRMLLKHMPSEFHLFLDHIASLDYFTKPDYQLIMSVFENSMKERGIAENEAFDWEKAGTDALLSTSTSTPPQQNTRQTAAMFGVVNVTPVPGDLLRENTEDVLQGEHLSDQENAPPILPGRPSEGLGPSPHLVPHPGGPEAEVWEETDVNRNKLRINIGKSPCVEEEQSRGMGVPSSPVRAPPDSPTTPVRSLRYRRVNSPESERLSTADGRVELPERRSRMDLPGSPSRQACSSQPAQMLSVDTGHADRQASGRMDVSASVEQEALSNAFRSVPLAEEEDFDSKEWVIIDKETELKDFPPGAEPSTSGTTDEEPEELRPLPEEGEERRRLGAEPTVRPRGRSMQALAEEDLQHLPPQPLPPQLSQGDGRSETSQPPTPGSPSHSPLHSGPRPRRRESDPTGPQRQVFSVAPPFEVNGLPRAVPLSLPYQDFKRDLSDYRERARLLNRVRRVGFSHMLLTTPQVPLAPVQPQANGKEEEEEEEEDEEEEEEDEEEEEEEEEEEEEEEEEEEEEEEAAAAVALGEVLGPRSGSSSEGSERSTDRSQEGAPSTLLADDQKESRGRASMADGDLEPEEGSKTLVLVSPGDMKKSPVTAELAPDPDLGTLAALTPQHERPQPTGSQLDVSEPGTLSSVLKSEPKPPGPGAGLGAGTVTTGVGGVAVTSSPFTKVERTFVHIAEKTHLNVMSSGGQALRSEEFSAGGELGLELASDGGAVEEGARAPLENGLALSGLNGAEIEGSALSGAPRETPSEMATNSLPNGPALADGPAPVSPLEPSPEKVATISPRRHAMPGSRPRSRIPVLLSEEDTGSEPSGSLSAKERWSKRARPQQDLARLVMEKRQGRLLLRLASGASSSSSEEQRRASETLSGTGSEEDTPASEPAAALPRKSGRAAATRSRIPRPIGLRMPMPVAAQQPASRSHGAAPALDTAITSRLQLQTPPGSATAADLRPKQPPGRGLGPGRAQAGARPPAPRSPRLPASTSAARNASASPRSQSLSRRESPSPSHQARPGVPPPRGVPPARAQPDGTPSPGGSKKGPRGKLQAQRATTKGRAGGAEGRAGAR

TSSK1B, construct: Full length (from UniProt Q9BXA7)
relative phosphorylation
Details | at +1 | at +2 | at +3 | at +4 | at -1 | at -2 | at -3 | at -4 | at -5
A fixed | 0.896 | 1.04 | 0.82 | 0.786 | 1.15 | 1.84 | 0.918 | 1.21 | 1.05
D fixed | 0.619 | 0.465 | 1.55 | 0.621 | 0.453 | 0.495 | 0.378 | 0.625 | 0.389
E fixed | 0.69 | 0.497 | 0.747 | 0.452 | 0.506 | 0.474 | 0.532 | 0.883 | 0.371
F fixed | 1.1 | 0.97 | 1.09 | 1.33 | 0.617 | 0.565 | 0.497 | 0.643 | 0.99
G fixed | 0.884 | 1.4 | 0.809 | 0.639 | 1.08 | 1.2 | 1.08 | 1.29 | 0.635
H fixed | 1.1 | 1.99 | 1.29 | 0.768 | 0.957 | 0.981 | 1.01 | 1.23 | 0.57
I fixed | 0.854 | 1.56 | 0.66 | 2.06 | 0.502 | 0.661 | 0.421 | 0.677 | 1.61
K fixed | 1.43 | 0.385 | 0.945 | 0.621 | 2.08 | 2.53 | 2.55 | 2.11 | 0.612
L fixed | 1.03 | 1.53 | 0.758 | 2.43 | 0.683 | 0.423 | 0.418 | 0.73 | 2.77
M fixed | 1.23 | 1.21 | 0.953 | 1.9 | 0.885 | 0.681 | 0.607 | 1.12 | 1.14
N fixed | 1.05 | 0.881 | 1.92 | 0.793 | 0.98 | 1.22 | 0.887 | 0.889 | 0.477
P fixed | 0.176 | 0.61 | 0.392 | 0.702 | 1.96 | 0.794 | 1.3 | 0.592 | 1.26
Q fixed | 1.38 | 0.997 | 1.07 | 0.683 | 1.17 | 1.29 | 0.858 | 0.864 | 0.783
R fixed | 1.54 | 0.586 | 0.953 | 0.529 | 1.98 | 1.72 | 3.76 | 1.81 | 1.09
V fixed | 0.935 | 1.07 | 0.632 | 1.34 | 0.59 | 1.11 | 0.545 | 0.797 | 1.76
W fixed | 0.893 | 0.845 | 1.56 | 0.719 | 0.601 | 0.401 | 0.465 | 0.73 | 0.734
Y fixed | 1.19 | 0.96 | 0.851 | 0.62 | 0.817 | 0.623 | 0.772 | 0.805 | 0.767
pThr fixed | 0.709 | 0.515 | 0.365 | 0.424 | 0.191 | 0.303 | 0.574 | 0.596 | 0.457
pTyr fixed | 0.793 | 0.437 | 0.381 | 0.396 | 0.445 | 0.326 | 0.424 | 0.432 | 0.65

TTBK1, construct: Full length (from UniProt Q5TCY1)
relative phosphorylation
Details | at +1 | at +2 | at +3 | at +4 | at -1 | at -2 | at -3 | at -4 | at -5
A fixed | 0.474 | 1.63 | 0.964 | 0.817 | 0.663 | 0.79 | 0.94 | 0.821 | 0.856
D fixed | 0.168 | 0.192 | 0.85 | 0.83 | 0.452 | 1.46 | 1.23 | 1.03 | 0.844
E fixed | 0.626 | 0.168 | 1.35 | 0.735 | 0.391 | 1.14 | 0.832 | 0.75 | 0.582
F fixed | 2.09 | 1.42 | 1.49 | 1.32 | 1.99 | 1.06 | 1.43 | 1.33 | 1.78
G fixed | 0.183 | 0.441 | 0.998 | 0.874 | 0.355 | 0.662 | 0.918 | 0.815 | 0.877
H fixed | 0.657 | 1.1 | 0.867 | 0.931 | 0.834 | 0.749 | 0.903 | 0.951 | 0.747
I fixed | 2.66 | 1.23 | 1.54 | 0.714 | 1.67 | 1.02 | 1.56 | 1.24 | 1.19
K fixed | 0.517 | 1.04 | 0.514 | 1.1 | 1.28 | 0.64 | 0.66 | 0.957 | 1.08
L fixed | 1.76 | 0.965 | 1.15 | 0.965 | 1.7 | 2.09 | 1.24 | 1.07 | 0.95
M fixed | 1.5 | 1.31 | 1.29 | 0.855 | 1.08 | 1.23 | 1.04 | 0.933 | 0.79
N fixed | 0.221 | 0.394 | 0.472 | 0.8 | 0.562 | 0.773 | 0.666 | 0.683 | 0.626
P fixed | 0.0712 | 0.231 | 0.421 | 1.23 | 0.589 | 1.04 | 0.649 | 0.687 | 0.7
Q fixed | 0.749 | 0.493 | 0.595 | 0.928 | 0.675 | 0.849 | 0.801 | 0.674 | 0.773
R fixed | 0.789 | 1.42 | 0.641 | 1.41 | 1.23 | 0.934 | 0.888 | 1.06 | 1.22
V fixed | 1.84 | 1.18 | 1.35 | 0.728 | 1.4 | 1.04 | 1.02 | 1.22 | 1.17
W fixed | 1.38 | 2.24 | 1.19 | 1.75 | 1.11 | 0.808 | 1.16 | 1.54 | 1.35
Y fixed | 1.31 | 1.57 | 1.32 | 1.01 | 1.03 | 0.721 | 1.08 | 1.23 | 1.47
pThr fixed | 0.403 | 0.521 | 0.836 | 1.01 | 0.51 | 2.02 | 1.57 | 1.28 | 1.03
pTyr fixed | 1.48 | 12.4 | 1.22 | 0.697 | 0.613 | 2.31 | 2.58 | 1.76 | 1.35

TTK, construct: Full length (from UniProt P33981)
relative phosphorylation
Details | at +1 | at +2 | at +3 | at +4 | at -1 | at -2 | at -3 | at -4 | at -5
A fixed | 0.968 | 0.742 | 0.497 | 0.739 | 0.798 | 0.532 | 0.845 | 0.952 | 0.97
D fixed | 0.397 | 0.389 | 0.331 | 0.48 | 1.22 | 4.68 | 2.19 | 1.55 | 1.15
E fixed | 0.883 | 0.339 | 0.26 | 0.39 | 0.866 | 2.91 | 1.94 | 1.47 | 0.983
F fixed | 0.541 | 0.748 | 1.48 | 0.895 | 0.671 | 0.373 | 0.55 | 0.76 | 0.791
G fixed | 1.18 | 0.501 | 0.552 | 1.15 | 0.568 | 0.922 | 1.32 | 1.24 | 1.26
H fixed | 0.952 | 1.44 | 0.97 | 1.42 | 1.78 | 0.675 | 1.18 | 1.05 | 1.25
I fixed | 1.29 | 0.784 | 1.89 | 0.746 | 0.696 | 0.294 | 0.419 | 0.51 | 0.604
K fixed | 1.28 | 1.61 | 0.956 | 1.76 | 1.26 | 0.456 | 0.966 | 1.02 | 1.1
L fixed | 1.02 | 0.802 | 2.26 | 0.738 | 0.849 | 0.336 | 0.537 | 0.694 | 0.757
M fixed | 1.49 | 1.02 | 1.29 | 0.868 | 0.905 | 0.453 | 0.651 | 0.865 | 0.884
N fixed | 0.685 | 1.29 | 0.723 | 1.28 | 1.47 | 1.82 | 1.29 | 1.22 | 1.1
P fixed | 0.275 | 0.773 | 0.532 | 0.823 | 0.891 | 0.504 | 0.959 | 0.984 | 1.39
Q fixed | 1.71 | 0.974 | 0.748 | 1.1 | 1.16 | 0.873 | 0.975 | 0.981 | 0.857
R fixed | 1.51 | 1.91 | 1.01 | 1.64 | 1.15 | 0.854 | 1.29 | 1.16 | 1.09
V fixed | 1.45 | 0.963 | 1.23 | 0.651 | 0.837 | 0.337 | 0.487 | 0.675 | 0.784
W fixed | 0.704 | 1.75 | 1.29 | 1.21 | 0.766 | 0.529 | 0.66 | 0.964 | 0.984
Y fixed | 0.659 | 0.971 | 0.984 | 1.12 | 1.12 | 0.453 | 0.734 | 0.899 | 1.04
pThr fixed | 0.734 | 0.393 | 0.576 | 0.455 | 0.7 | 1.12 | 1.75 | 1.37 | 1.41
pTyr fixed | 0.362 | 0.27 | 0.696 | 0.45 | 0.787 | 0.765 | 0.997 | 0.781 | 1.47
